From patent US7772181B2, “Personal care compositions comprising modified variant Bowman Birk Protease Inhibitors” (Danisco US Inc., priority 2008, dated 2010)
Positions count from the first letter of the chain named. Names may count otherwise. Blank lines part the entries; values can stand above or below the molecule they belong to.

Tests used:
[1] = molecular target: T1, VegF (UniProt P15692); assay: BioVeris electrochemiluminescence competition binding assay, VEGF; details: for IC50: Target protein VEGF, competition assay, concentration reducing BioVeris signal by one half, read-out: BioVeris Binding (apparent IC50)
T1 sequence (P15692 207-395): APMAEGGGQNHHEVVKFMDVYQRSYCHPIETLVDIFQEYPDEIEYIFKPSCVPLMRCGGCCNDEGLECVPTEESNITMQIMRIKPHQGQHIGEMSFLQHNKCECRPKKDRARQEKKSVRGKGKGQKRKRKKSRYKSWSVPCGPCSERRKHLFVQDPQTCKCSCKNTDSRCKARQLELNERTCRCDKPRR
Protocol: Briefly, after cleavage, the pH of the cleaved sample was adjusted to 5.5, the sample was then loaded onto the column (equilibrated with 25 mM MES pH 5.5). The free 2BBIck81 was washed through the column using 25 mM sodium acetate pH 5.0 while the BCE103 catalytic core remained bound to the resin. The 2BBIck81 fraction was concentrated by ultrafiltration and analyzed using an electrochemiluminescence (ECL) based binding assay (BioVeris). The Anti-VegF antibody (Santa Cruz) and VegF (PeproTech) were labeled with the electrochemiluminescent dye and biotin, respectively, as described by the manufacturer (BioVeris). All materials were in Dulbecco's PBS (Mediatech) supplemented with 0.1% TWEEN®-80. An initial dilution series of Anti-VegF antibody (125, 250 and 500 ng/ml) and VegF (100, 150, 200 and 250 ng/ml) were tested in the binding assay to determine the concentrations of each that would give a robust ECL signal.
For testing 2BBIck81 binding, 50 μL of 500 ng/ml ECL labeled Anti-VegF antibody, 50 μL of 250 ng/ml biotinylated VegF and 100 μL 2BBIck81 (series of 12.5, 15, 31.25, 62.5, 125, 250 or 500 ng/ml) were incubated at room temperature for 2 h with shaking. Then, 50 μL of 0.2 mg/ml streptavidin coated beads were added and the reaction was incubated at room temperature for 30 minutes. The ECL signal was measured using a BioVeris M8/384 Analyzer as described by the manufacturer (BioVeris).
The resulting vectors were used to transform B. subtilis BG6006 host cells. Cultures were grown in 500 ml of MBD medium and the BBI species were purified essentially as described above and by Vogtentanz et al., 2007 (Protein Expr Purif 55:40-52 [2007]). BioVeris binding assays were performed essentially as outlined in Example 5 and by the manufacturer. Binding of the modified variant BBIs to their respective target proteins was measured using a BioVeris® binding assay, which is a competition assay that determines the binding of the modified variant BBIs to its target protein (e.g. VEGF, FGF5, TGFβ and TNFα) in the presence or absence of a labeled competitor. The competitor can be a labeled monoclonal antibody raised against the target protein or a labeled native receptor of the target protein. The electrochemiluminescent binding assays were performed essentially as described in Example 5. The apparent IC50s were determined from binding data by determining the concentration of the BBI species needed to reduce the BioVeris signal by one half. BBI scaffolds without the target binding peptide in the chymotrypsin inhibitory loop were used as negative controls.

[2] = molecular target: T2, bovine pancreatic trypsin (Bos taurus, UniProt P00760); assay: Purification process yield of octuple variants (trypsin inhibition); assay type: biochemical
T2 construct: purchased Worthington (Worthington Biochemical Corp.)
T2 sequence (P00760 24-246): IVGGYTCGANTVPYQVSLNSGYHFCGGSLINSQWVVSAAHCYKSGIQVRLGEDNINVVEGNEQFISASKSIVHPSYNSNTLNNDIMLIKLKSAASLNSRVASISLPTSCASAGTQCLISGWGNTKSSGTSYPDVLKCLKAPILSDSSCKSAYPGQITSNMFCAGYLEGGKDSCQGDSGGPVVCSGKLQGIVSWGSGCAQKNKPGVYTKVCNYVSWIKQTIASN
Protocol: The best octuple variants selected in the shake flask screen were tested in the purification process essentially as described above, and including the following changes: 1) after growth, the culture was two fold diluted in glycine buffer (125 mM final concentration and pH adjusted to 9.0) instead of CHES buffer; 2) samples were activated with 2 mM 2-mercaptoethanol only (no sodium sulfite was added; 3) the acid precipitated fusion protein was resuspended in 100 ml of 125 mM glycine (rather than 350 ml of 40 mM glycine); and 4) the pellet collected after the acid/heat treatment was washed with 10 ml water, filtered, and this “washed pellet” filtrate was combined with the original filtrate. The final filtrates were concentrated and trimmed with Glu-BL as described above

[3] = molecular target: T2, bovine pancreatic trypsin; assay: BBIt-AV:BCE activity ratio, microtiter plate screens (primary, quadruplicate secondary); assay type: biochemical; details: single substitution in BBIt-AV, in the presence of reducing agent
Protocol: The cultures in each master plate were thawed and a pin replicator was used to inoculate a new sterile microtiter plate containing 150 μl of Luria broth with 5 μg/ml chloramphenicol in each well. The plates were grown for ˜10 hrs in a humidified and aerated box as described above. For controls, the cultures in two wells were replaced with BBI and BBI-AV cultures that had been grown concurrently in 15 ml culture tubes (5 ml of Luria broth with 5 μg/ml chloramphenicol). After the cultures were grown, the plate was used to inoculate two duplicate 96-well filter plates (Millipore, MSGV2210) containing 150 μl of MBD medium (Vogtentanz et al., 2007) with 5 μg/ml chloramphenicol in each well by using a pin replicator. The duplicate plates were grown for ˜14 hours (as above, with plastic spacers placed between the stacked plates to allow for efficient air flow around the plates) and then 2-mecaptoethanol was added to each well in one of the plates to a final concentration of 2 mM. The plates were then grown for an additional ˜46 hours. The 96-well filter plates containing the culture broth (with or without added 2-mecaptoethanol) were then assayed for BBI and BCE activity.
Libraries were analyzed using dilutions of cultures grown in 96-well plates. Typically, the culture broth from each well was diluted (200 fold) in Assay Buffer (100 mM Tris pH 8.6, 0.005% Tween 80) and transferred to a second microtiter plate (CoStar 9017, Corning, Inc., Corning, N.Y.). Then, 20 μl of the diluted samples were transferred to a third microtiter plate. A standard curve was created by adding 20, 10, 5 or 2.5 μl of the diluted sBBI (SEQ ID NO:13) control culture to empty wells. Then, 80 μL of 50 ng/ml trypsin (bovine pancreatic trypsin, Worthington Biochemical Corp., Lakewood, N.J.) (prepared from a 1 mg/mL stock solution diluted into Assay Buffer) was added to each well of the plate. The reactions were mixed and incubated 15 min at room temperature. After the incubation, 100 μL of 0.5 mg/ml trypsin substrate (succinyl-Ala-Ala-Pro-Arg-para-nitroanilide, Bachem Bioscience, Inc., King of Prussia, Pa.), diluted in Assay Buffer from a 100 mg/ml solution in DMSO, was added to each well, mixed, and the absorbance at 405 nm was monitored for 15 min, with 1 time point recorded every 12 sec using a Spectra Max 250 (Molecular Devices). The data points were used to determine the rate for each reaction. The standard curve was generated by plotting the reaction rate versus the BBI volume and was fitted to a four-parameter equation. All data fitting was done using software supplied by the manufacturer (Molecular Devices Corp., Sunnyvale, Calif.). The activity of each BBIt-AV variant was calculated from the standard curve. Thus, the activities of all modified variant proteins were determined relative to the activity in the sBBI control (BBI-WT) culture.
The concentration of BCE was determined by an activity assay using purified BCE as a standard as described above and by (Vogtentanz et al. 2007). For the analysis of libraries grown in 96-well microtiter plates, 20 μl of culture broth were transferred to each well of a new microtiter plate. A standard curve was created by adding 20, 10, 5 or 2.5 μl of the diluted BBI-WT control culture to these empty wells. Then, 180 μl of the BCE substrate (0.25 μg/ml in Assay Buffer), 4-nitrophenyl β-D-cellobioside (Sigma, St. Louis, Mo.), was added to the plate. The plate was mixed and the absorbance at 405 nm monitored for 15 min, with 1 time point recorded every 12 s using a Spectra Max 250 (Molecular Devices Corp., Sunnyvale, Calif.). The data points were used to determine the rate for each reaction. The standard curve was generated by plotting rate versus culture volume and was fit to a quadratic curve. The BCE concentration in each variant culture was determined relative to the standard control culture. […]

[4] = molecular target: T2, bovine pancreatic trypsin; assay: Shake flask screen: trypsin inhibition after growth, 2-mercaptoethanol activation and acid/heat treatment; assay type: biochemical; details: single substitutions in BBIt-AV
Protocol: To increase expression, the gene copy of the selected clones was amplified by sequentially streaking colonies on Luria agar plates with 25 μg/ml chloramphenicol until the growth rate was similar to growth on Luria agar plates without chloramphenicol. Cultures of the selected variants and controls were grown in 3 ml Luria broth with 25 μg/ml chloramphenicol in 15 ml tubes for ˜10 h. These cultures (30 μl) were then used to inoculate 30 ml of MBD medium in 250 ml baffled shake flasks and grown at 37° C. and 225 rpm for ˜60 h.
For selection of the variants with the best yields, the culture broths were processed as follows. The broth was first activated by mixing 20 ml of broth with 20 ml of 0.25 M glycine buffer (pH 9.3) and the pH was adjusted to 9.0 with 50% NaOH. Then, 2-mercaptoethanol was added to the diluted cultures to a final concentration of 2 mM and the cultures were incubated overnight at room temperature with gentle shaking. The BBIt-AV moiety was then cleaved from the fusion protein by acid/heat treatment, which was accomplished by first adjusting the pH of the activated broth to pH 1.9-2.0 with sulfuric acid, and followed by incubation at 60° C. for 16 hours, with shaking. The BBIt-AV-BCE fusion protein and the BCE catalytic domain are not soluble at pH 2, whereas the free BBI species is soluble. After the cleavage reaction, the insoluble material was removed by centrifugation (5 min. at 3,000 rpm) and the supernatant was analyzed for trypsin inhibitory activity as described above. The BBI activity was also determined for the starting material and for the samples taken after activation. The BCE activity of the starting material was also determined as described above. The BBIt-AV:BCE activity ratios were then calculated for each step in process. The modified BBIt-AVs produced at the highest yields following the acid/heat treatment were selected for further study.

- IC50 [1]: 2 to 10 µM
B1: BBIt-AV of SEQ ID NO: 640 (protein)
chain: DPDDESSKPCCDQCICTKSNPPQCRCRDARPNACHSACKSCACKYYLYWWCKCTDITDFCYEPCKPSE
modifications: synthetic BBIt-VEGK

- IC50 [1]: 2 to 10 µM
B2: BBIt-AV of SEQ ID NO: 642 (protein)
chain: B1 chain with Y46D
modifications: synthetic BBIt-VEGKD

- IC50 [1]: 2 to 10 µM
B3: BBIt-AV of SEQ ID NO: 641 (protein)
chain: B1 chain with K44T, Y45L, Y46W, L47K, Y48S, W49Y
modifications: synthetic BBIt-VEGT

- yield relative to wild-type sBBI [2]: better than the wild-type sBBI
B4: QQ8: octuple modified variant BBPI, SEQ ID NO:628 (protein)
chain: DPDDESSKPCCDQCICTKSNPPQCRCKDARRNECHSACKSCKCYNLYGWTCQCQDITDFCYEPCKPSE
modifications: synthetic BBPI variant
- purification yield relative to quintuple variant (SEQ ID NO:601) [2]: greater than that of the quintuple modified variant

- yield relative to wild-type sBBI [2]: better than the wild-type sBBI
B5: KT8: octuple modified variant BBPI, SEQ ID NO:627 (protein)
chain: B4 chain with K27R, R31P, E33A, K42H, Q52K, Q54T
modifications: synthetic BBPI variant
- purification yield relative to quintuple variant (SEQ ID NO:601) [2]: greater than that of the quintuple modified variant

- yield relative to wild-type sBBI [2]: better than the wild-type sBBI
B6: RL8: octuple modified variant BBPI, SEQ ID NO:630 (protein)
chain: B4 chain with E33A, K42H, Q52R, Q54L
modifications: synthetic BBPI variant

B7: BBIt-AV: truncated BBI-AV lacking the 5 C-terminal amino acids, unmodified variant, SEQ ID NO:187 (protein)
chain: DDESSKPCCDQCACTKSNPPQCRCSDMRLNSCHSACKSCACYNLYGWTCFCVDITDFCYEPCKPSE
modifications: synthetic BBIt-AV sequence
- binding to VEGF compared with full-length (untruncated) BBI-AV ([1]; labeled monoclonal antibody against VEGF as competitor): bind better than the full-length molecule

- activation level (BBIt-AV:BCE activity ratio after reducing agent) [4]: activate to similar levels
B8: V52L: BBIt-AV (SEQ ID NO:187) with single substitution V52L (protein)
chain: B7 chain with V52L
modifications: synthetic BBIt-AV sequence
- relative activity of the amino acid substitution (BBI:BCE activity ratio vs BBIt-AV), amino acid present in BBIsb3-AV [3]: L (+)
